Results: PMC10224958, “Cryo-EM structure of the Saccharomyces cerevisiae Rpd3L histone deacetylase complex” (Nature Communications, 2023)

T1: co-expressed complex of MBP-tagged human BRMS1 (residues 51-179) and His6-tagged mouse SDS3 (residues 43-234) (human | mouse, UniProt Q9HCU9 51-179; Q8BR65 43-234)
T1 construct: BRMS1, human, residues 51-179; SDS3, mouse, residues 43-234; The two chains were co-expressed and then combined with the separately expressed ARID4A R2 domain; also called SDS3, BRMS1; source: E. coli, co-expressed, purified (Ni-NTA, SEC)
T1 sequence (looked up) 1: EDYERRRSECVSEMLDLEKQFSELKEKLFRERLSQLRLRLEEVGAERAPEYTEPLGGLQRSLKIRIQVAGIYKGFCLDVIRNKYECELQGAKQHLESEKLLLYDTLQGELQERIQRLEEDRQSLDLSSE
T1 sequence (looked up) 2: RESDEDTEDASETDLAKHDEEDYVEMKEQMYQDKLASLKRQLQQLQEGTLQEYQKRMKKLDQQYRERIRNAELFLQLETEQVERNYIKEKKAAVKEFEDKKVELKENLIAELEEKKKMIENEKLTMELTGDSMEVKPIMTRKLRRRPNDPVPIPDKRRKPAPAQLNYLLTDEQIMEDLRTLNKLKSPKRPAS

B1: Rxt2 with a TAP tag at the C-terminus (natural protein, S. cerevisiae)
chain: MTIRSSMKNNAELESKSVLANESNIISTFTRRIIKEKSGNYQVLKRSLDGKLIYPEATGISSNRGNKLLQRSEVVTRRDLNNSKPMIEQTVFYNGSEHRLLQTNIVTDSRRKRIKFTPDINVEPVLVGDENDIDGSEKEDENITDEYYGEEDDDDLSKLVNVKEILTPILSLGDIINHKTISRTFSSPILKNLALQIILMIEKEQMSVVRYSQFLEVFLGDHPEPIYESNLNLPSYNHNLTLPEDRGASDEDDINNKNNINEVNSNSLSTEAGHINNGMEEFGEEDPFFALPRLEQSNALLSLLPSSSGSASISTLTAAEQQQLNEEIESARQLSQIALQRNKEFIRNLQKIRKSVIKANRIRGRILNWSREYLGISDDDITIPVALRVVKRGLISATTNKTTNFEEEIENTMEDGVVDDNEPDEEANRA
notes: Rxt2, subunit of the S. cerevisiae Rpd3L complex; expressed from the tagged strain; not shown: TAP tag, C-terminal, kept
B2: Sds3 (natural protein, S. cerevisiae, UniProt P40505 1-327, looked up)
chain: MAIQKVSNKDLSRKDKRRFNIESKVNKIYQNFYSERDNQYKDRLTALQTDLTSLHQGDNGQYARQVRDLEEERDLELVRLRLFEEYRVSRSGIEFQEDIEKAKAEHEKLIKLCKERLYSSIEQKIKKLQEERLLMDVANVHSYAMNYSRPQYQKNTRSHTVSGWDSSSNEYGRDTANESATDTGAGNDRRTLRRRNASKDTRGNNNNQDESDFQTGNGSGSNGHGSRQGSQFPHFNNLTYKSGMNSDSDFLQGINEGTDLYAFLFGEKNPKDNANGNEKKKNRGAQRYSTKTAPPLQSLKPDEVTEDISLIRELTGQPPAPFRLRSD
notes: Sds3, subunit of the S. cerevisiae Rpd3L complex; endogenous subunit
B3: Sap30 (natural protein, S. cerevisiae, UniProt P38429 1-201, looked up)
chain: MARPVNTNAETESRGRPTQGGGYASNNNGSCNNNNGSNNNNNNNNNNNNNSNNSNNNNGPTSSGRTNGKQRLTAAQQQYIKNLIETHITDNHPDLRPKSHPMDFEEYTDAFLRRYKDHFQLDVPDNLTLQGYLLGSKLGAKTYSYKRNTQGQHDKRIHKRDLANVVRRHFDEHSIKETDCIPQFIYKVKNQKKKFKMEFRG
notes: Sap30, subunit of the S. cerevisiae Rpd3L complex; endogenous subunit
B4: Rxt3 (natural protein, S. cerevisiae, UniProt Q07458 1-294, looked up)
chain: MSVSEQDPNRAYRETQSQIYKLQETLLNSARTKNKQEEGQESNTHSFPEQYMHYQNGRNSAYDLPNVSSQSVLAFTEKHYPNKLKNLGTLYYNRFKEGSFDEDSTSYSDRHSFPYNLYDNTLPPPFLPAIGIQNINNIATLKITYEDIQASFNNIESPRKRNNEIWGCDIYSDDSDPILVLRHCGFKIGAPSGGSFHKLRRTPVNVTNQDNVTGNLPLLEGTPFDLEVELLFLPTLQKYPSVKRFDITSREWGSEATVIHDGLSYGIYSIVIKQRLDRDKPHEPNGYIKNLKWT
notes: Rxt3, subunit of the S. cerevisiae Rpd3L complex; endogenous subunit
B5: Dep1 (natural protein, S. cerevisiae, UniProt P31385 1-405, looked up)
chain: MSQQTPQESEQTTAKEQDLDQESVLSNIDFNTDLNHNLNLSEYCISSDAGTEKMDSDEEKSLANLPELKYAPKLSSLVKQETLTESLKRPHEDEKEAIDEAKKMKVPGENEDESKEEEKSQELEEAIDSKEKSTDARDEQGDEGDNEEENNEEDNENENEHTAPPALVMPSPIEMEEQRMTALKEITDIEYKFAQLRQKLYDNQLVRLQTELQMCLEGSHPELQVYYSKIAAIRDYKLHRAYQRQKYELSCINTETIATRTFIHQDFHKKVTDLRARLLNRTTQTWYDINKERRDMDIVIPDVNYHVPIKLDNKTLSCITGYASAAQLCYPGEPVAEDLACESIEYRYRANPVDKLEVIVDRMRLNNEISDLEGLRKYFHSFPGAPELNPLRDSEINDDFHQWAQ
notes: Dep1, subunit of the S. cerevisiae Rpd3L complex; endogenous subunit
B6: Rpd3 (enzyme, S. cerevisiae, UniProt P32561 1-433, looked up)
chain: MVYEATPFDPITVKPSDKRRVAYFYDADVGNYAYGAGHPMKPHRIRMAHSLIMNYGLYKKMEIYRAKPATKQEMCQFHTDEYIDFLSRVTPDNLEMFKRESVKFNVGDDCPVFDGLYEYCSISGGGSMEGAARLNRGKCDVAVNYAGGLHHAKKSEASGFCYLNDIVLGIIELLRYHPRVLYIDIDVHHGDGVEEAFYTTDRVMTCSFHKYGEFFPGTGELRDIGVGAGKNYAVNVPLRDGIDDATYRSVFEPVIKKIMEWYQPSAVVLQCGGDSLSGDRLGCFNLSMEGHANCVNYVKSFGIPMMVVGGGGYTMRNVARTWCFETGLLNNVVLDKDLPYNEYYEYYGPDYKLSVRPSNMFNVNTPEYLDKVMTNIFANLENTKYAPSVQLNHTPRDAEDLGDVEEDSAEAKDTKGGSQYARDLHVEHDNEFY
notes: Rpd3, histone deacetylase, the catalytic subunit of the S. cerevisiae Rpd3L complex; endogenous subunit; Present in two copies in the Rpd3L complex, one in each lobe; also called Rpd3-I; Rpd3-II
B7: Pho23 (natural protein, S. cerevisiae, UniProt P50947 1-330, looked up)
chain: MSSPANLFPGLNDITDVLEEFPLATSRYLTLLHEIDAKCVHSMPNLNERIDKFLKKDFNKDHQTQVRLLNNINKIYEELMPSLEEKMHVSSIMLDNLDRLTSRLELAYEVAIKNTEIPRGLRLGVDNHPAMHLHHELMEKIESKSNSKSSQALKSESRREAMAANRRQGEHYSASTHQQDDSKNDANYGGSRHESQDHTGNNTNSRKRANAANTNNADPETKKRKRRVATTAVSPSTISTATAVNNGRIGTSTASRGVSSVGNSNNSRISRPKTNDYGEPLYCYCNQVAYGEMVGCDGADCELEWFHLPCIGLETLPKGKWYCDDCKKKL
notes: Pho23, subunit of the S. cerevisiae Rpd3L complex; endogenous subunit
B8: His6-tagged human ARID4A R2 domain (residues 1164-1230) (domain or fragment, UniProt P29374 1164-1230, looked up)
chain: SPRTYKWSFQLNELDNMNSTERISFLQEKLQEIRKYYMSLKSEVATIDRRRKRLKKKDREVSHAGAS
notes: ARID4A, human, R2 domain, residues 1164-1230; Construct in the pMCSG7 vector; source: E. coli, expressed separately, purified (Ni-NTA, SEC)

How the values were obtained:
Rpd3 [1] = molecular target: B6; experiment: affinity purification with mass spectrometry; tandem affinity purification from S. cerevisiae lysate by the TAP tag on Rxt2 (IgG resin, TEV protease, calmodulin resin; washes with 500 to 750 mM KCl); the purified complex analysed by mass spectrometry; settings: partners not purified
Sin3 [2] = molecular target: T2, Sin3 (S. cerevisiae, UniProt P22579 1-1536); experiment: as above; settings: partners not purified
T2 construct: Sin3, principal scaffolding subunit of the S. cerevisiae Rpd3L complex; endogenous subunit; Present in two copies in the Rpd3L complex, one in each lobe; also called Sin3-I; Sin3-II

Sin3 [3] = molecular target: T2, Sin3; experiment: cryo-EM structure; Rpd3L complex purified by TAP, crosslinked on ice with 1 mM BS3 for 15 min, graphene oxide coated grid; map at 3.5 Å, lobes I and II focus refined to 3.4 Å; settings: both partners purified
Sds3 = molecular target: B2; experiment: as above; settings: both partners purified
Rpd3 [4] = molecular target: B6; experiment: as above; settings: both partners purified
Dep1 = molecular target: B5; experiment: as above; settings: both partners purified
[5] = molecular target: T1, co-expressed complex of MBP-tagged …; experiment: SEC; Ni-NTA purified proteins on a Superdex 75 GL column in 25 mM MOPS pH 7.5, 150 mM NaCl, 1 mM TCEP; co-elution; settings: both partners purified

T2 sequence (P22579 whole entry): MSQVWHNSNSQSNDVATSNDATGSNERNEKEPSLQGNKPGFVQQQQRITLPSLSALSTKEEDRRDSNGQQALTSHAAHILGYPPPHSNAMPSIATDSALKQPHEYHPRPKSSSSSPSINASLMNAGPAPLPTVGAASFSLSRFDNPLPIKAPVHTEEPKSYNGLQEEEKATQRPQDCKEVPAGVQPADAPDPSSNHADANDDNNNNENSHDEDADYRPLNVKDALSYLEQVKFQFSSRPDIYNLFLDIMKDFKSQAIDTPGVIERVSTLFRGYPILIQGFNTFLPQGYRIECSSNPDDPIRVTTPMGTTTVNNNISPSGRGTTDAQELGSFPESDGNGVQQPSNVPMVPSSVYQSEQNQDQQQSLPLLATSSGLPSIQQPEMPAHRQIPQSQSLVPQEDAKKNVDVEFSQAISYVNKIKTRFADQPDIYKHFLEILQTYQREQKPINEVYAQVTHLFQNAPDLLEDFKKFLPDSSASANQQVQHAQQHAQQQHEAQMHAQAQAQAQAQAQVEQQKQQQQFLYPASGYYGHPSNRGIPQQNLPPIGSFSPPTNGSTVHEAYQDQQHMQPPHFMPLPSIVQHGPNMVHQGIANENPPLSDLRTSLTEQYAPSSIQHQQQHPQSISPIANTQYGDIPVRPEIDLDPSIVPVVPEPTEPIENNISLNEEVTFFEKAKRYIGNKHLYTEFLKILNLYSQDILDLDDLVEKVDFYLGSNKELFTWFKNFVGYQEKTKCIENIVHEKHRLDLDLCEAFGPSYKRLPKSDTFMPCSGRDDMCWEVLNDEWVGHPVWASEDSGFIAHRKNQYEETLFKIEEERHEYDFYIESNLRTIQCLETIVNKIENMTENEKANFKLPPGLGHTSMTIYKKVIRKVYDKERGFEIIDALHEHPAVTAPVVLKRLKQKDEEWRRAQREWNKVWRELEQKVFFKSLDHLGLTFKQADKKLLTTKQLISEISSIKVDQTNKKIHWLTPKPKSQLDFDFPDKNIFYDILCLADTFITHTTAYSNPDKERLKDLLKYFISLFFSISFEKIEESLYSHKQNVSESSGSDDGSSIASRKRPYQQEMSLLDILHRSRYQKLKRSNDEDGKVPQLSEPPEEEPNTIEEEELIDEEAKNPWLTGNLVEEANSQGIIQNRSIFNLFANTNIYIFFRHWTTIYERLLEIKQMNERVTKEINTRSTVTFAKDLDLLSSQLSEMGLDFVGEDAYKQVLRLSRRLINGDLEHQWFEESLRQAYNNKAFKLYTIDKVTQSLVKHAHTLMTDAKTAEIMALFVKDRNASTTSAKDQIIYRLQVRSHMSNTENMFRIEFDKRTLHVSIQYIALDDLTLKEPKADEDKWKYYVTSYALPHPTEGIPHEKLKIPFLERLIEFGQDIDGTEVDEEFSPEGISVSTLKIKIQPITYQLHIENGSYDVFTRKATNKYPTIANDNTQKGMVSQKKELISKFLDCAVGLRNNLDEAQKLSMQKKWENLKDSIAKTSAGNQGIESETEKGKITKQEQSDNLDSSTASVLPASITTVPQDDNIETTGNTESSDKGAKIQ

Binder: B1
binding result (Rpd3 [1]): binds
binding result (Sin3 [2]): binds

Binder: B2
binding result (Sin3 [3]): binds

Binder: B3
binding result (Sds3): binds
binding result (Sin3 [3]): binds

Binder: B4
binding result (Sin3 [3]): binds

Binder: B5
binding result (Rpd3 [4]): binds
binding result (Sin3 [3]): binds

Binder: B6
binding result (Sin3 [3]): binds

Binder: B7
binding result (Dep1): binds
binding result (Rpd3 [4]): binds

Binder: B8
binding result [5]: binds
